Test results published in patent US20130287807A1, “COMPOUNDS FOR TREATING SYMPTOMS ASSOCIATED WITH PARKINSON'S DISEASE” (priority 2008, published 2013).

biological target: DAEFRH-peptide-specific monoclonal antibody (Example 1); assay: inhibition ELISA, competitor plate-bound DAEFRH-C-BSA

Binder	IC50 [µg/mL]
ELEFRGC [Peptide 3008]	< 5
SFEFRGC [Peptide 3009]	< 5
SWEFRTC [Peptide 4002]	< 0.4
DRELRIC [Peptide 1235]	< 0.5
DKELRC [Peptide 1238]	< 0.5
DWEFRDAC [Peptide 1241]	< 0.5
DKELKIC [Peptide 1236]	> 5
DRELKIC [Peptide 1237]	> 5
EYEFRGC [Peptide 1239]	> 0.5
SVEFRYH [Peptide 4021]	< 0.5
SYEFRHH [Peptide 4022]	< 0.5
SQEFRTP [Peptide 4023]	< 0.5
SSEFRVS [Peptide 4024]	< 0.5
DWEFRD [Peptide 4025]	< 0.5
SWELRQA [Peptide 4020]	> 0.5
DAELRY [Peptide 4031]	< 0.5
DWELRQ [Peptide 4032]	< 0.5
SLEFRF [Peptide 4033]	< 0.5
GPEFRW [Peptide 4034]	< 0.5
GKEFRT [Peptide 4035]	< 0.5
AYEFRH [Peptide 4036]	> 0.5

biological target: monoclonal antibody MV-001; assay: ELISA on peptide-BSA; code 3 = strong binding, OD halfmax 1:>20000

Binder	OD halfmax 1:X (dilution factor of the parental antibody at half-maximal OD) (dilutionfactor(1:x))
SEFKHGC [p4381]	> 20000
TSVFRHC [p4383]	> 20000
LMFRHNC [p4386]	> 20000
ILFRHGC [p4390]	> 20000
SPNQFRHC [p4707]	> 20000
THTDFRHC [p4725]	> 20000
DEHPFRHC [p4730]	> 20000
QSEFKHWC [p4738]	> 20000
ADHDFRHC [p4740]	> 20000
DGLLFKHC [p4741]	> 20000
EELRHSVC [p4746]	> 20000
SEFKHC [p4801]	> 20000

biological target: monoclonal antibody MV-001; assay: ELISA on peptide-BSA; code 2 = medium binding, OD halfmax 1:4000-20000

Binder	OD halfmax 1:X (dilution factor of the parental antibody at half-maximal OD) (dilutionfactor(1:x))
QDFRHYC [p4380]	4000 to 20000
TSFRHGC [p4382]	4000 to 20000
TPFRHTC [p4384]	4000 to 20000
SQFRHYC [p4385]	4000 to 20000
SAFRHHC [p4387]	4000 to 20000
LPFRHGC [p4388]	4000 to 20000
SHFRHGC [p4389]	4000 to 20000
QFKHDLC [p4391]	4000 to 20000
EEFKYSC [p4393]	4000 to 20000

biological target: monoclonal antibody MV-001; assay: inhibition ELISA, competitor coated original epitope p4371; code 1 = weaker than original epitope

Binder	OD at 10 ug peptide relative to OD of original peptide (inhibition ELISA) [fold]
QDFRHYC [p4380]	2 to 3
SEFKHGC [p4381]	2 to 3
TSFRHGC [p4382]	2 to 3
TSVFRHC [p4383]	2 to 3
TPFRHTC [p4384]	2 to 3
SQFRHYC [p4385]	2 to 3
LMFRHNC [p4386]	2 to 3
SAFRHHC [p4387]	2 to 3
LPFRHGC [p4388]	2 to 3
SHFRHGC [p4389]	2 to 3
ILFRHGC [p4390]	2 to 3
QFKHDLC [p4391]	2 to 3
EEFKYSC [p4393]	2 to 3
SPNQFRHC [p4707]	2 to 3
THTDFRHC [p4725]	2 to 3
DEHPFRHC [p4730]	2 to 3
QSEFKHWC [p4738]	2 to 3
ADHDFRHC [p4740]	2 to 3
DGLLFKHC [p4741]	2 to 3
EELRHSVC [p4746]	2 to 3
SEFKHC [p4801]	2 to 3
